Entries after “also recorded” stand apart in the source; their conditions may differ. Numbered stars: 1 amine (or outer) side, 2 acyl side, 3 side chain; on linkers, the order of the positions; unused ones are H or OH. Bridge positions count the residues as written; N and C are the ends. Square brackets hold non-standard residues; d marks the D form. Peptide text beside a SMILES is read from it. X1 = CC(=O)NC(C(=O)OC(C(C)C)C(N[*:1])C(=O)[*:2])C(O)C(C)C; PhLac = O=C(O)[CH](O)Cc1ccccc1; NMeT = CN[CH](C(=O)O)[CH](C)O; NMeA = CN[CH](C)C(=O)O; NMeDha = C=C(NC)C(=O)O
Experiments:
Gq proteins [1] = target: Gq proteins
Gq proteins [2] = target: Gq proteins; remark: listed apart in the source
[3] = system: Gq signaling in HEK 293T cells; test: IP1 accumulation in Opn5-expressing HEK 293T cells; type: cell-based; settings: 100 μW/mm2, 470 nm; for effect on light-evoked IP1 accumulation in cOpn5-expressing cells: YM-254890 treatment, 3 min; for light-induced increase in the level of inositol phosphate (IP1): continuous light 3 min
Procedure: (§1) Whether heterologous expression of the Opn5 orthologs from chicken, turtles, humans and mice (which share 80-90% protein sequence identity) have the capacity to mediate blue light-induced Gq signaling activation within HEK 293T cells is tested (FIG. 1a and table 7). Blue light for stimulation and the red intracellular calcium indicator Calbryte™ 630 AM dye are used to monitor the relative Ca^2+ response (FIG. 1b).
f, YM suppressed the IP1 accumulation evoked by continuous light stimulation (3 min; 100 μW/mm^2; 470 nm) in cOpn5-expressing HEK 293T cells (Left). ***P<0.0001, *P=0.0128; Tukey's multiple comparisons test.

[4] = system: Gq signaling in HEK 293T cells; test: Light-induced Ca2+ signal (Calbryte 630 AM dye) in opsin-expressing HEK 293T cells; type: cell-based; settings: for light-induced increase in Ca2+ signal: blue light 10 s, 100 μW/mm2, 488 nm, no exogenous retinal
Procedure: as §1
b, Pseudocolor images of the Ca2+ signal before and after blue light stimulation (10 s; 100 μW/mm^2; 488 nm) in HEK 293T cells expressing Opn5 from three species (Gallus gallus, Homo sapiens, and Mus musculus). Scale bar, 10 μm.
Characterizing the light-activating properties of cOpn5 heterologously expressed in HEK 293T cells is performed. […] The effects of different light durations on cOpn5-expressing HEK 293T cells are tested. […] Therefore, the light sensitivity of cOpn5 is 3-4 orders of magnitude higher than the reported values of the light-sensitive Gq-coupled GPCRs and even 2-3 orders higher than those of the commonly used optogenetic tool Channelrhodopsin-2 (ChR2)(Lin, 2011; Zhang et al., 2006) (table 8).
The performance of cOpn5 to that of opto-a1AR, a chimera GPCR engineered by mixing rhodopsin with Gq-coupled adrenergic receptor is compared. […] The performance of cOpn5 to that of opn4, a natural opsin which was reported as a tool for Gq signaling activating is also compared. […] Therefore, compared with existing opsin-based tools (opto-a1AR and opn4), cOpn5 is much more light-sensitive (˜3 orders more sensitive), requires much shorter time exposure (10 ms vs. 60 s), and produces stronger responses. […]
Experiments description: the following table 9 is a partial list of cOpn5 orthologs from vertebrata tested in the present invention. Whole genes of all reported opsin5 orthologs from vertebrata (the vertebrates subphylum, including rotundia, cartilaginous fishes, bony fishes, Amphibia, reptila, ornitha and mammals) are synthetized, and expressed in HEK 293T cells. Calcium imaging with or without 470 nm blue light stimulation is performed to test the sensitivity of the opsin 5 orthologs in response to light. The time course of light-induced calcium signal reveal the activated degree of Gq signaling pathway and the sensitivity of these orthologs.

Gi signaling = test: cAMP levels in Opn5-expressing HEK 293T cells after photostimulation; type: cell-based; settings: with retinal (10 μM retinal preincubation)
Procedure: as §1
f, Light has no effect on cAMP levels (10 μM forskolin preincubation) in cOpn5-expressing HEK 293T cells without additional retinal in the medium (left panel).

[5] = system: astrocytes within the mouse S1 cortex; test: In vivo two-photon imaging (920 nm) of ATP release (GRABATP sensor) following astrocyte activation; settings: eight hours after intraperitoneal LPS
HEK293-TRPC3 cells = settings: cited from earlier work
in vivo astrocytes = settings: cited from earlier work

For “human OPN4 (melanopsin) (from UniProt Q9UHM6) (receptor)”, the light-induced Ca^2+ signal in HEK 293T cells (Gq proteins [1]) was 1 ΔF/F.

With Turtle Opn5 (opsin 5) (receptor) the light-induced Ca^2+ signal (Calbryte 630 AM) in HEK 293T cells (Gq proteins [2]) was 3 ΔF/F.

In the case of `C=C1C(=O)NC(C)C(=O)N(C)C(C)C(=O)NC(C(OC(=O)C(NC(C)=O)C(O)C(C)C)C(C)C)C(=O)N(C)C(C(C)OC)C(=O)OC(C)C(NC(C)=O)C(=O)OC(Cc2ccccc2)C(=O)N1C` (centres unmarked) [YM-254890, reference compound] (Ac-T[PhLac][NMeDha]A[NMeA][X1][NMeT](Me); ester 1-C; configuration not given here), the “effect on light-evoked IP1 accumulation in cOpn5-expressing cells” value [3] is reported as “reduced”, the “effect on light-evoked IP1 accumulation in cOpn5-expressing cells” value ([3]; listed as YM) is reported as “suppressed” and the “effect on cOpn5-mediated, light-induced Ca2+ signals” value ([4]; YM-254890 10 nM preincubation, cOpn5-expressing HEK 293T cells) is reported as “reversibly abolishes; also recorded: reversibly blocked”. The “effect on turtle Opn5-mediated, light-induced Ca2+ signals” value ([4]; YM-254890 10 nM, turtle Opn5-expressing HEK 293T cells) was “reversibly blocked”.

With opto-a1AR (receptor) the light-induced Ca^2+ signal in HEK 293T cells (Gq proteins [1]) was 0.5 ΔF/F.

For “Chicken Opn5 (opsin 5, neuropsin) (receptor)”, the light-induced Ca^2+ signal (Calbryte 630 AM) in HEK 293T cells (Gq proteins [2]) was 3 ΔF/F.

For “hOPN5: Human (Homo sapiens) Opn5 ortholog, GenBank AY377391.1 [reference compound]”, the “light-induced increase in the level of inositol phosphate (IP1)” value ([3]; listed as human OPN5) was “not”, the “light-induced increase in the level of inositol phosphate (IP1)” value ([3]; listed as human Opn5) was “no significant difference” and the “effect of blue light illumination on cAMP levels” value (Gi signaling) was “effectively reduces cAMP levels”. The “light-induced increase in Ca2+ signal” value [4] was “no light effect”.

In the case of lipopolysaccharide [LPS], the “increase of ATP flash events over basal condition” value [5] is reported as ~6 fold and the ATP flash frequency ([5]; mice expressing GRABATP alone) is reported as ~2 flashes per min.

B1: mOpn5: Mouse (Mus musculus) Opn5 ortholog, GenBank NM_181753.4 (protein)
chain: MALNHTALPQDERLPHYLRDEDPFASKLSWEADLVAGFYLTIIGILSTFGNGYVLYMSSRRKKKLRPAEIMTINLAVCDLGISVVGKPFTIISCFCHRWVFGWFGCRWYGWAGFFFGCGSLITMTAVSLDRYLKICYLSYGVWLKRKHAYICLAVIWAYASFWTTMPLVGLGDYAPEPFGTSCTLDWWLAQASGGGQVFILSILFFCLLLPTAVIVFSYAKIIAKVKSSSKEVAHFDSRIHSSHVLEVKLTKVAMLICAGFLIAWIPYAVVSVWSAFGRPDSIPIQLSVVPTLLAKSAAMYNPIIYQVIDYRFACCQAGGLRGTKKKSLEDFRLHTVTAVRKSSAVLEIHPESSSRFTSAHVMDGESHSNDGDCGKK
In the case of B1, the “effect of blue light illumination on cAMP levels” value (Gi signaling) is reported as “effectively reduces cAMP levels” and the “light-induced increase in Ca2+ signal” value [4] is reported as “no light effect”.

B2: tOpn5: Turtle (Chelonia mydas) Opn5 ortholog, SEQ ID NO:2, GenBank XM_007068312.4 (protein)
chain: MASNHSTSPQDDHLPHYLQDEDPFASKLSREADIVAGFYLTIIGVLSTFGNGYVLFMSLKRKKKLKPAEIMTVNLAMCDLGISVVGKPFSIISFFSHRWVFGWLGCRWYGWAGFFFGCGSLITLTAVSLDRYLKICHLTYGTWLKRHHAFICLAIIWAYATFWATVPFAGLGNYAPEPFGTSCTLDWWLAQGSVAGQAFILNILFFCLLLPTAVIVFSYVKIIAKVKSSAKEVAHYDTRIQNSHVLEIKLTKVAMLICAGFLIAWIPYAVVSVWSAFGQPDSVPIQVSVIPTLLAKSAAMYNPIIYQVIDCKFSCCRSLQKKSSLKKSRLYTISGNREPTEMNETHLEL
modifications: Chelonia mydas
For B2, the “light-induced increase in Ca2+ signal” value [4] was ~3 ΔF/F.

B3: mouse melanopsin (Opn4): mouse melanopsin, literature optogenetic tool in Table 8 (protein, UniProt Q9QXZ9 1-521, looked up)
Melanopsin: MDSPSGPRVLSSLTQDPSFTTSPALQGIWNGTQNVSVRAQLLSVSPTTSAHQAAAWVPFPTVDVPDHAHYTLGTVILLVGLTGMLGNLTVIYTFCRNRGLRTPANMFIINLAVSDFLMSVTQAPVFFASSLYKKWLFGETGCEFYAFCGAVFGITSMITLTAIAMDRYLVITRPLATIGRGSKRRTALVLLGVWLYALAWSLPPFFGWSAYVPEGLLTSCSWDYMTFTPQVRAYTMLLFCFVFFLPLLIIIFCYIFIFRAIRETGRACEGCGESPLRQRRQWQRLQSEWKMAKVALIVILLFVLSWAPYSTVALVAFAGYSHILTPYMSSVPAVIAKASAIHNPIIYAITHPKYRVAIAQHLPCLGVLLGVSGQRSHPSLSYRSTHRSTLSSQSSDLSWISGRKRQESLGSESEVGWTDTETTAAWGAAQQASGQSFCSQNLEDGELKASSSPQVQRSKTPKVPGPSTCRPMKGQGARPSSLRGDQKGRLAVCTGLSECPHPHTSQFPLAFLEDDVTLRHL
In the case of B3, the Light Sensitivity (HEK293-TRPC3 cells; (500 nm)) is listed as 1e+15 photons s^−1 cm^−2 and the “Response amplitude: Ca2+ response ampitude” value (HEK293-TRPC3 cells) is listed as ~0.1 (ΔF/F).

B4: human melanopsin: a natural opsin (melanopsin, Opn4) reported as a tool for Gq signaling activating (protein)
chain: MNPPSGPRVPPSPTQEPSCMATPAPPSWWDSSQSSISSLGRLPSISPTAPGTWAAAWVPLPTVDVPDHAHYTLGTVILLVGLTGMLGNLTVIYTFCRSRSLRTPANMFIINLAVSDFLMSFTQAPVFFTSSLYKQWLFGETGCEFYAFCGALFGISSMITLTAIALDRYLVITRPLATFGVASKRRAAFVLLGVWLYALAWSLPPFFGWSAYVPEGLLTSCSWDYMSFTPAVRAYTMLLCCFVFFLPLLIIIYCYIFIFRAIRETGRALQTFGACKGNGESLWQRQRLQSECKMAKIMLLVILLFVLSWAPYSAVALVAFAGYAHVLTPYMSSVPAVIAKASAIHNPIIYAITHPKYRVAIAQHLPCLGVLLGVSRRHSRPYPSYRSTHRSTLTSHTSNLSWISIRRRQESLGSESEVGWTHMEAAAVWGAAQQANGRSLYGQGLEDLEAKAPPRPQGHEAETPGKTKGLIPSQDPRM
In the case of B4, the “Light Sensitivity” value (in vivo astrocytes) is listed as 7 mW/mm^2, the “Response amplitude: Ca2+ event frequence” value (in vivo astrocytes) is listed as ~2 (ΔF/F) and the “change in Ca2+ amplitude” value (in vivo astrocytes) is listed as “no significant”. The “effect of light on Ca2+ signals without ATR” value ([4]; OPN4-expressing cells, 25 s light, without ATR) was “lack of effect”, the “Light Sensitivity” value ([4]; Table 8, HEK 293T) was 40 mW/mm^2 and the “Response amplitude: Ca2+ response amplitude” value ([4]; Table 8, HEK 293T, light as in the row's sensitivity and duration columns) was ~0.646 (ΔF/F). The “Ca2+ signal increase” value ([4]; opn4-expressing cells, 25 s, 40 mW/mm2, additional retinal) was ~1 ΔF/F.

Source: US20250011391A1, “ULTRA LIGHT-SENSITIVE NEUROPSIN-BASED OPTOGENETIC TOOL FOR ACTIVATING G q-COUPLED SIGNALING AND/OR ACTIVATING CELLS” (GENANS BIOTECHNOLOGY CO., LTD, priority 2021, published 2025)
